Laboratory results as given in article PMC12102759 (2025).

B1: PEX5 peptide 240-255 (Peroxisomal targeting signal 1 receptor), 16-mer library wild type / PEX14 Pex14 (PEX14 PEX14, residues 16-84) (parent complex)
chain 1: AEQWAAEFIQQQGTSD
chain 2: TPGSENVLPREPLIATAVKFLQNSRVRQSPLATRRAFLKKKGLTDEEIDMAFQQSGTAADEPSSLGPAT
B2: AZIN2 peptide 1-16 (Antizyme inhibitor 2), 16-mer library wild type / NSP3 ADRP (ORF1ab Nsp3b ADRP, residues 1023-1192) (parent complex)
chain 1: MAGYLSESDFVMVEEG
chain 2: not shown

Variants of: B1
Test: proteomic peptide phage display deep mutational scan (ProP-PD DMS): M13 P8 16-mer library selected against immobilised GST-tagged bait for four days (rounds), NGS of the eluted pools per day and pseudo-replica; bait immobilised on MaxiSorp plates (10 µg), library pre-cleared on GST, 2 h binding at 4 °C, five washes; one round per day, days 1-4; value from days 2 and 3

**Q.** chain 1 AEQWANEFIQQQGTSD [chain 1 A6N] was tested. Which screen value did it give?
**A.** The screen value was 0.00234 average fractional NGS count over selection days 2 and 3 (reads of this peptide / all reads for the bait, averaged over ….

**Q.** How did the screen value turn out when chain 1 AEQWAAEFIGQQGTSD [chain 1 Q10G] was run?
**A.** The screen value was 0.00258 average fractional NGS count over selection days 2 and 3 (reads of this peptide / all reads for the bait, averaged over ….

**Q.** With chain 1 AEQWAAEFIRQQGTSD [chain 1 Q10R] as the variant, how does the screen value read?
**A.** Its screen value is 0.00109 average fractional NGS count over selection days 2 and 3 (reads of this peptide / all reads for the bait, averaged over ….

**Q.** chain 1 AEQWAAEFIPQQGTSD [chain 1 Q10P] was tested. Which screen value did it give?
**A.** The screen value was 0.00113 average fractional NGS count over selection days 2 and 3 (reads of this peptide / all reads for the bait, averaged over ….

**Q.** How did the screen value turn out when chain 1 AEQWAAEFIVQQGTSD [chain 1 Q10V] was run?
**A.** The screen value was 0.00204 average fractional NGS count over selection days 2 and 3 (reads of this peptide / all reads for the bait, averaged over ….

**Q.** For chain 1 AEQWSAEFIQQQGTSD [chain 1 A5S], which screen value is on record?
**A.** Its screen value is 0.00197 average fractional NGS count over selection days 2 and 3 (reads of this peptide / all reads for the bait, averaged over ….

**Q.** chain 1 AEQWMAEFIQQQGTSD [chain 1 A5M] was tested. Which screen value did it give?
**A.** The screen value was 0.00306 average fractional NGS count over selection days 2 and 3 (reads of this peptide / all reads for the bait, averaged over ….

**Q.** Which screen value does the source give for chain 1 AEQWKAEFIQQQGTSD [chain 1 A5K] here?
**A.** Its screen value is 0.00108 average fractional NGS count over selection days 2 and 3 (reads of this peptide / all reads for the bait, averaged over ….

**Q.** How did the screen value turn out when chain 1 AEQWDAEFIQQQGTSD [chain 1 A5D] was run?
**A.** Its screen value is 0.00199 average fractional NGS count over selection days 2 and 3 (reads of this peptide / all reads for the bait, averaged over ….

**Q.** Which screen value does the source give for chain 1 AEQWQAEFIQQQGTSD [chain 1 A5Q] here?
**A.** Its screen value is 0.00841 average fractional NGS count over selection days 2 and 3 (reads of this peptide / all reads for the bait, averaged over ….

**Q.** With chain 1 AEQWYAEFIQQQGTSD [chain 1 A5Y] as the variant, how does the screen value read?
**A.** Its screen value is 0.00174 average fractional NGS count over selection days 2 and 3 (reads of this peptide / all reads for the bait, averaged over ….

**Q.** For chain 1 AEQWAAEFIQQQGVSD [chain 1 T14V], which screen value is on record?
**A.** The screen value was 0.000546 average fractional NGS count over selection days 2 and 3 (reads of this peptide / all reads for the bait, averaged over ….

**Q.** How did the screen value turn out when chain 1 AEQWAAEFIQQQGGSD [chain 1 T14G] was run?
**A.** The screen value was 0.000345 average fractional NGS count over selection days 2 and 3 (reads of this peptide / all reads for the bait, averaged over ….

**Q.** How did the screen value turn out when chain 1 AEQWAAEFIQQQGFSD [chain 1 T14F] was run?
**A.** Its screen value is 0.00226 average fractional NGS count over selection days 2 and 3 (reads of this peptide / all reads for the bait, averaged over ….

**Q.** With chain 1 ANQWAAEFIQQQGTSD [chain 1 E2N] as the variant, how does the screen value read?
**A.** Its screen value is 0.0028 average fractional NGS count over selection days 2 and 3 (reads of this peptide / all reads for the bait, averaged over ….

**Q.** For chain 1 ARQWAAEFIQQQGTSD [chain 1 E2R], which screen value is on record?
**A.** The screen value was 0.00281 average fractional NGS count over selection days 2 and 3 (reads of this peptide / all reads for the bait, averaged over ….

**Q.** For chain 1 AWQWAAEFIQQQGTSD [chain 1 E2W], which screen value is on record?
**A.** The screen value was 0.000954 average fractional NGS count over selection days 2 and 3 (reads of this peptide / all reads for the bait, averaged over ….

**Q.** For chain 1 ATQWAAEFIQQQGTSD [chain 1 E2T], which screen value is on record?
**A.** Its screen value is 0.00227 average fractional NGS count over selection days 2 and 3 (reads of this peptide / all reads for the bait, averaged over ….

**Q.** For chain 1 APQWAAEFIQQQGTSD [chain 1 E2P], which screen value is on record?
**A.** Its screen value is 0.000798 average fractional NGS count over selection days 2 and 3 (reads of this peptide / all reads for the bait, averaged over ….

**Q.** chain 1 AGQWAAEFIQQQGTSD [chain 1 E2G] was tested. Which screen value did it give?
**A.** Its screen value is 0.000866 average fractional NGS count over selection days 2 and 3 (reads of this peptide / all reads for the bait, averaged over ….

**Q.** With chain 1 AEQWAAEYIQQQGTSD [chain 1 F8Y] as the variant, how does the screen value read?
**A.** Its screen value is 0.000429 average fractional NGS count over selection days 2 and 3 (reads of this peptide / all reads for the bait, averaged over ….

**Q.** With chain 1 AEQWAAEMIQQQGTSD [chain 1 F8M] as the variant, how does the screen value read?
**A.** The screen value was 0.00109 average fractional NGS count over selection days 2 and 3 (reads of this peptide / all reads for the bait, averaged over ….

**Q.** For chain 1 IEQWAAEFIQQQGTSD [chain 1 A1I], which screen value is on record?
**A.** Its screen value is 0.000927 average fractional NGS count over selection days 2 and 3 (reads of this peptide / all reads for the bait, averaged over ….

**Q.** chain 1 MEQWAAEFIQQQGTSD [chain 1 A1M] was tested. Which screen value did it give?
**A.** Its screen value is 0.000375 average fractional NGS count over selection days 2 and 3 (reads of this peptide / all reads for the bait, averaged over ….

**Q.** Which screen value does the source give for chain 1 KEQWAAEFIQQQGTSD [chain 1 A1K] here?
**A.** Its screen value is 0.000873 average fractional NGS count over selection days 2 and 3 (reads of this peptide / all reads for the bait, averaged over ….

**Q.** For chain 1 EEQWAAEFIQQQGTSD [chain 1 A1E], which screen value is on record?
**A.** Its screen value is 0.000945 average fractional NGS count over selection days 2 and 3 (reads of this peptide / all reads for the bait, averaged over ….

**Q.** chain 1 YEQWAAEFIQQQGTSD [chain 1 A1Y] was tested. Which screen value did it give?
**A.** Its screen value is 0.017 average fractional NGS count over selection days 2 and 3 (reads of this peptide / all reads for the bait, averaged over ….

**Q.** Which screen value does the source give for chain 1 WEQWAAEFIQQQGTSD [chain 1 A1W] here?
**A.** Its screen value is 0.00504 average fractional NGS count over selection days 2 and 3 (reads of this peptide / all reads for the bait, averaged over ….

**Q.** How did the screen value turn out when chain 1 NEQWAAEFIQQQGTSD [chain 1 A1N] was run?
**A.** Its screen value is 0.00349 average fractional NGS count over selection days 2 and 3 (reads of this peptide / all reads for the bait, averaged over ….

**Q.** With chain 1 DEQWAAEFIQQQGTSD [chain 1 A1D] as the variant, how does the screen value read?
**A.** The screen value was 0.00705 average fractional NGS count over selection days 2 and 3 (reads of this peptide / all reads for the bait, averaged over ….

**Q.** How did the screen value turn out when chain 1 AEQWAADFIQQQGTSD [chain 1 E7D] was run?
**A.** Its screen value is 0.00269 average fractional NGS count over selection days 2 and 3 (reads of this peptide / all reads for the bait, averaged over ….

**Q.** How did the screen value turn out when chain 1 AEQWAATFIQQQGTSD [chain 1 E7T] was run?
**A.** Its screen value is 0.0012 average fractional NGS count over selection days 2 and 3 (reads of this peptide / all reads for the bait, averaged over ….

**Q.** chain 1 AEQWAAVFIQQQGTSD [chain 1 E7V] was tested. Which screen value did it give?
**A.** Its screen value is 0.000633 average fractional NGS count over selection days 2 and 3 (reads of this peptide / all reads for the bait, averaged over ….

**Q.** Which screen value does the source give for chain 1 AEQWAAEFIQAQGTSD [chain 1 Q11A] here?
**A.** Its screen value is 0.00173 average fractional NGS count over selection days 2 and 3 (reads of this peptide / all reads for the bait, averaged over ….

**Q.** How did the screen value turn out when chain 1 AEQWAAEFIQIQGTSD [chain 1 Q11I] was run?
**A.** Its screen value is 0.00199 average fractional NGS count over selection days 2 and 3 (reads of this peptide / all reads for the bait, averaged over ….

**Q.** How did the screen value turn out when chain 1 AEQWAAEFIQKQGTSD [chain 1 Q11K] was run?
**A.** The screen value was 0.000704 average fractional NGS count over selection days 2 and 3 (reads of this peptide / all reads for the bait, averaged over ….

**Q.** How did the screen value turn out when chain 1 AEQWAAEFIQHQGTSD [chain 1 Q11H] was run?
**A.** Its screen value is 0.00664 average fractional NGS count over selection days 2 and 3 (reads of this peptide / all reads for the bait, averaged over ….

Variants of: B2
Test: bait immobilised on MaxiSorp plates (10 µg), library pre-cleared on GST, 2 h binding at 4 °C, five washes; one round per day, days 1-4; value from days 2 and 3

**Q.** With chain 1 V11I as the variant, how does the screen value read?
**A.** The screen value was 0.195 average fractional NGS count over selection days 2 and 3 (reads of this peptide / all reads for the bait, averaged over ….

**Q.** Which screen value does the source give for chain 1 V11M here?
**A.** The screen value was 0.000364 average fractional NGS count over selection days 2 and 3 (reads of this peptide / all reads for the bait, averaged over ….

**Q.** How did the screen value turn out when chain 1 E15N was run?
**A.** Its screen value is 0.000739 average fractional NGS count over selection days 2 and 3 (reads of this peptide / all reads for the bait, averaged over ….

**Q.** For chain 1 D9E, which screen value is on record?
**A.** Its screen value is 0.000316 average fractional NGS count over selection days 2 and 3 (reads of this peptide / all reads for the bait, averaged over ….

**Q.** Which screen value does the source give for chain 1 E14M here?
**A.** The screen value was 0.000122 average fractional NGS count over selection days 2 and 3 (reads of this peptide / all reads for the bait, averaged over ….

**Q.** chain 1 G3R was tested. Which screen value did it give?
**A.** The screen value was 7.43e-05 average fractional NGS count over selection days 2 and 3 (reads of this peptide / all reads for the bait, averaged over ….

**Q.** How did the screen value turn out when chain 1 G3A was run?
**A.** The screen value was 0.000627 average fractional NGS count over selection days 2 and 3 (reads of this peptide / all reads for the bait, averaged over ….

**Q.** For chain 1 M12E, which screen value is on record?
**A.** The screen value was 0.000138 average fractional NGS count over selection days 2 and 3 (reads of this peptide / all reads for the bait, averaged over ….

**Q.** Which screen value does the source give for chain 1 M12R here?
**A.** The screen value was 0.000896 average fractional NGS count over selection days 2 and 3 (reads of this peptide / all reads for the bait, averaged over ….

**Q.** chain 1 M12L was tested. Which screen value did it give?
**A.** Its screen value is 0.0611 average fractional NGS count over selection days 2 and 3 (reads of this peptide / all reads for the bait, averaged over ….

**Q.** With chain 1 M12Y as the variant, how does the screen value read?
**A.** Its screen value is 0.000582 average fractional NGS count over selection days 2 and 3 (reads of this peptide / all reads for the bait, averaged over ….

**Q.** chain 1 V13T was tested. Which screen value did it give?
**A.** Its screen value is 8.71e-05 average fractional NGS count over selection days 2 and 3 (reads of this peptide / all reads for the bait, averaged over ….

**Q.** For chain 1 V13Q, which screen value is on record?
**A.** Its screen value is 0.000748 average fractional NGS count over selection days 2 and 3 (reads of this peptide / all reads for the bait, averaged over ….

**Q.** How did the screen value turn out when chain 1 V13I was run?
**A.** The screen value was 0.00423 average fractional NGS count over selection days 2 and 3 (reads of this peptide / all reads for the bait, averaged over ….

**Q.** For chain 1 G16L, which screen value is on record?
**A.** The screen value was 0.000127 average fractional NGS count over selection days 2 and 3 (reads of this peptide / all reads for the bait, averaged over ….

**Q.** How did the screen value turn out when chain 1 G16D was run?
**A.** The screen value was 0.00105 average fractional NGS count over selection days 2 and 3 (reads of this peptide / all reads for the bait, averaged over ….

**Q.** How did the screen value turn out when chain 1 G16Q was run?
**A.** Its screen value is 0.000216 average fractional NGS count over selection days 2 and 3 (reads of this peptide / all reads for the bait, averaged over ….

**Q.** For chain 1 G16P, which screen value is on record?
**A.** The screen value was 9.14e-05 average fractional NGS count over selection days 2 and 3 (reads of this peptide / all reads for the bait, averaged over ….

**Q.** chain 1 G16T was tested. Which screen value did it give?
**A.** Its screen value is 0.000528 average fractional NGS count over selection days 2 and 3 (reads of this peptide / all reads for the bait, averaged over ….

**Q.** How did the screen value turn out when chain 1 G16K was run?
**A.** The screen value was 0.000188 average fractional NGS count over selection days 2 and 3 (reads of this peptide / all reads for the bait, averaged over ….

**Q.** chain 1 S8L was tested. Which screen value did it give?
**A.** The screen value was 0.000166 average fractional NGS count over selection days 2 and 3 (reads of this peptide / all reads for the bait, averaged over ….

**Q.** chain 1 S8Y was tested. Which screen value did it give?
**A.** Its screen value is 0.035 average fractional NGS count over selection days 2 and 3 (reads of this peptide / all reads for the bait, averaged over ….
